Test results as given in patent US20020137703, “Protection-of-telomere-1 (POT-1) protein and encoding polynucleotides” (published 2002).

T1: SpPot1p (Pot1, full length) (Schizosaccharomyces pombe, UniProt O13988 O13988:1-555)
T1 sequence: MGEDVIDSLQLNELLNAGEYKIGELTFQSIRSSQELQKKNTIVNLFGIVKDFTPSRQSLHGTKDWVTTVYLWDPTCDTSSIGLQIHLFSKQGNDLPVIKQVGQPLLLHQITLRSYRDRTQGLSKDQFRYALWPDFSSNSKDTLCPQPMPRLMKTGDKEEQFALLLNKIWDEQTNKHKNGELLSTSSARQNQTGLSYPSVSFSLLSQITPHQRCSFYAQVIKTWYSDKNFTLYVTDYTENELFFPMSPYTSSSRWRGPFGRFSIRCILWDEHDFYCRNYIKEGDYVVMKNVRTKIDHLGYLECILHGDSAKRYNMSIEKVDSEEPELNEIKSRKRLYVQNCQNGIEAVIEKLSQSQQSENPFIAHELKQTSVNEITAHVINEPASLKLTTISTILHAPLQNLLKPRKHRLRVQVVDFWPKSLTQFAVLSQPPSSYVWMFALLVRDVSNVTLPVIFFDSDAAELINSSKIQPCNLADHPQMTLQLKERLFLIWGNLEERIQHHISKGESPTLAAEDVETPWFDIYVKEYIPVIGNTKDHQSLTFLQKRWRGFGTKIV

T2: hPot1p (Homo sapiens, UniProt Q9NUX5 Q9NUX5:1-634)
T2 sequence: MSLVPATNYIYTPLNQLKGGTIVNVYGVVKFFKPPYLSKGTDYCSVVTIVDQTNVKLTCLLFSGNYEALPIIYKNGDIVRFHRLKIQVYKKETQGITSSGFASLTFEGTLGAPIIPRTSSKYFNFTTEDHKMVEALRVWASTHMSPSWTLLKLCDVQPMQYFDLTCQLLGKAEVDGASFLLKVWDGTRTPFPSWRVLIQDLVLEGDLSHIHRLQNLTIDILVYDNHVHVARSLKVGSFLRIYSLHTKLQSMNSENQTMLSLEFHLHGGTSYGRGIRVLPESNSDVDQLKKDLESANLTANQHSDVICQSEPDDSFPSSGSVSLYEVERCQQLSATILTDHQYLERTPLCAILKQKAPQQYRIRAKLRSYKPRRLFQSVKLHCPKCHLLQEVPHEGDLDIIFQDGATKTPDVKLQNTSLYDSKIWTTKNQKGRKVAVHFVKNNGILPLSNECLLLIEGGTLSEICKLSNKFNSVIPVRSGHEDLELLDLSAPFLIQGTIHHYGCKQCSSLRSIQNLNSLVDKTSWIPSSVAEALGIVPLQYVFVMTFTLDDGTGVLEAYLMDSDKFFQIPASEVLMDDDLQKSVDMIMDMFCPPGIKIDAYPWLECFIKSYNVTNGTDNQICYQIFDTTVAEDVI

T3: SpPot1p N-terminal 22 kDa fragment (Schizosaccharomyces pombe, UniProt O13988 O13988:1-185)
T3 sequence: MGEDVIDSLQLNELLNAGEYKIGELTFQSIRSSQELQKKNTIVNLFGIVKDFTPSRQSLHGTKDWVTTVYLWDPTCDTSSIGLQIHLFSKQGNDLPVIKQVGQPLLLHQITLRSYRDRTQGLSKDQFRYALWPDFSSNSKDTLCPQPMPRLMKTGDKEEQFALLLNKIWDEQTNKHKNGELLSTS


molecular target: T1, SpPot1p (Pot1, full length); assay: listed as SpPot1p-binding oligonucleotide; details: tags: N-terminal V5 and His6 tags plus pQE30 N-terminal His6; E. coli M15

Binding result, binds:
CTGTAAGCGGTTACGGTTACGAATCTCG (ssDNA) [PBoli188]
GGTTACACGGTTACAGGTTACAGGTTACAG (ssDNA) [PBoli110]
GGTTACAGGTTACAGGTTAC (ssDNA) [PT1]
CTGTAAGCATATCATCATTCGAGGTTAC (ssDNA) [PBoli183]
GGTTACGGTTACCATCATTCGAATCTCG (ssDNA) [PBoli186]
GGTTACGGTTACAGGTTACA (ssDNA) [PBoli52]
GTTACAGGTTACGGTTACGG (ssDNA) [PBoli54]
TGTGGTGTGTGGGTGTGCGGTT (ssDNA) [PBoli86]
GGTTACGCATATCATCATTCGAATCTCG (ssDNA) [PBoli184]
CTGTAAGCATATCATCGGTTACGGTTAC (ssDNA) [PBoli185]
CGGTTACACGGTTACAGGT (ssDNA) [PBoli53]
CTGTAAGCATATGGTTACTCGAATCTCG (ssDNA) [PBoli187]

molecular target: T2, hPot1p; assay: EMSA; same conditions as SpPot1p; details: tags: N-terminal His6 (pQE30); E. coli; label: 32P

Binding result, binds:
TTAGGGTTAGGGTTAGGGTTAGGGTTAGGG (ssDNA) [human G-strand (TTAGGG)5 (PBoli179)]

molecular target: T3, SpPot1p N-terminal 22 kDa fragment; assay: EMSA; truncated Pot1p-DNA complex seen in mixture with full-length protein; details: tags: N-terminal V5 and His6 tags; present in mixture with full-length protein; label: 5' 32P
Method: FIG. 3B: Same as FIG. 3A except that the added protein contained truncated Pot1p as well as full length protein. Truncated Pot1p-DNA complex is indicated by a closed arrow.
(§1) C-strand ([…]) and G-strand ([…]) were 5′ ³²P-labeled using T4 polynucleotide kinase and γ-³²P-ATP. Duplex DNA was generated by annealing equimolar amounts of radiolabeled C-strand and unlabelled G-strand. Binding reactions (10 μl) were carried out in 25 mM HEPES (pH 7.5), 1 mM EDTA, 50 mM NaCl, 5% glycerol, and 2.5 μM PBoli109 ([…]) as non-specific competitor. Pot1p (50 ng) was incubated with the indicated DNA substrates (1 ng) for 15 min at 20° C. Complexes were analyzed by electrophoresis at 4° C. through a 4-20% TBE gel (Invitrogen) run at 150 V for 80 min. The Pot1p-DNA complex is indicated by an open arrow in FIG. 3A. […] Truncated Pot1p-DNA complex is indicated by a closed arrow.

Binding result, binds:
GGTTACACGGTTACAGGTTACAGGTTACAGGGTTACGGTTACG (ssDNA) [S. pombe G-strand (PBoli112)]

molecular target: T1, SpPot1p (Pot1, full length); assay: EMSA; 25 mM HEPES pH 7.5, 1 mM EDTA, 50 mM NaCl, 5% glycerol, 20 C, PBoli109 competitor; details: tags: N-terminal V5 and His6 tags plus pQE30 N-terminal His6; E. coli M15; label: 5' 32P
Method: as §1

Binding result, binds:
GGTTACACGGTTACAGGTTACAGGTTACAGGGTTACGGTTACG (ssDNA) [S. pombe G-strand (PBoli112)]

molecular target: T2, hPot1p; assay: listed as hPot1p-binding oligonucleotide; details: tags: N-terminal His6 (pQE30); E. coli

Binding result, binds:
GGTTAGGGTTAGGGTTAGGG (ssDNA) [PBoli178]
TTAGGGTTAGGGTTAGGGTT (ssDNA) [PBoli177]
